The results in this text go back to patent US20250177482.

Series [1] has as its system Complement Component 3b (C3b) in vitreous humor of African Green Monkeys.
Series [2] relates to CFI-HSA (human serum albumin fused to the N-terminal end of wild type CFI).

Consider “CFI-HSA (human serum albumin fused to the N-terminal end of wild type CFI)”, for which the “ratio of C3b/iC3b in vitreous humor (chemiluminescent western blot, densitometry)” value in series [1] is recorded as “showing a significant increase in cleavage in eyes receiveing a 1.0 mg injection of CFI-HSA compared to vehicle controls”. Turning to recombinant furin, in series [2], the “activation (cleavage of CFI-HSA into its activated form)” value is listed as “more than 90% activation of the protein”.
